Experimental data reported in doi:10.1101/509869 (bioRxiv, 2019).

Molecular target: the molecule itself
Assay: SEC-MALS

B1: TEX12 (human, amino acids 1-123, full length) (natural protein, UniProt Q9BXU0 1-123, looked up)
chain: MMANHLVKPDNRNCKRPRELESPVPDSPQLSSLGKSDSSFSEISGLFYKDEALEKDLNDVSKEINLMLSTYAKLLSERAAVDASYIDEIDELFKEANAIENFLIQKREFLRQRFTVIANTLHR
stoichiometry N: 2

B2: TEX12core (human TEX12, amino acids 49-123) (domain or fragment, UniProt Q9BXU0 49-123, looked up)
chain: KDEALEKDLNDVSKEINLMLSTYAKLLSERAAVDASYIDEIDELFKEANAIENFLIQKREFLRQRFTVIANTLHR
stoichiometry N: 2
